Assay [1] deals with Cas7 of the Desulfovibrio vulgaris type I-C Cascade (Desulfovibrio vulgaris). Description: cryo-EM structure; purified type I-C Cascade with its crRNA, 0.3 mg/mL in 20 mM HEPES-NaOH pH 7.5, 100 mM KCl, 1 mM TCEP; graphene oxide grids; 3.1 A (3.13 A) reconstruction.
Assay [2] shares this target. Description: native MS; purified type I-C Cascade with its crRNA, about 6 uM, in 100 mM ammonium acetate; positive mode; in-source trapping at -120 and -300 V to release subunits and subcomplexes.
The target in assay [3] is Cas8c, large subunit of the Desulfovibrio vulgaris type I-C Cascade (Desulfovibrio vulgaris). The assay is described as above.

For the substance “Cas7 of the Desulfovibrio vulgaris type I-C Cascade (natural protein)”, the stoichiometry N in assay [1] and in assay [2] was 7 throughout.

For the substance “non-canonical small subunit (SSU) Cas11c of the Desulfovibrio vulgaris type I-C Cascade (domain or fragment)”, the stoichiometry N in assay [3] turned out to be 2.

The record behind these values is article PMC7684278.
